Experimental data taken from US20190023793A1.

Biological target: human PD-L1 full-length protein on cells (human) (UniProt Q9NZQ7)
Experiment: cell-based or functional assay

Chain of human PD-L1 full-length protein on cells (human) (Q9NZQ7 19-290): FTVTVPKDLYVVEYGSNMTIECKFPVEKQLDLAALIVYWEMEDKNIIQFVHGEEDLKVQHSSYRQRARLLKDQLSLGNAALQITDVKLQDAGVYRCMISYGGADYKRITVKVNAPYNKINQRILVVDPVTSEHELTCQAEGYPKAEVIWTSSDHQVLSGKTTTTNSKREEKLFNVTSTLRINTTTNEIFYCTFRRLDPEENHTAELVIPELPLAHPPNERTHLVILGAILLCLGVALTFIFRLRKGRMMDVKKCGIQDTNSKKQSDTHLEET

MOA NFAT reporter signal (Bio-Glo) at 0.005 nm | MOA NFAT reporter signal (Bio-Glo) at 0.015 nm | MOA NFAT reporter signal (Bio-Glo) at 0.046 nm | MOA NFAT reporter signal (Bio-Glo) at 0.137 nm | MOA NFAT reporter signal (Bio-Glo) at 0.412 nm | MOA NFAT reporter signal (Bio-Glo) at 1.235 nm | MOA NFAT reporter signal (Bio-Glo) at 3.704 nm | MOA NFAT reporter signal (Bio-Glo) at 11.111 nm | MOA NFAT reporter signal (Bio-Glo) at 33.333 nm | MOA NFAT reporter signal (Bio-Glo) at 100.000 nm | MOA NFAT reporter signal (Bio-Glo) at 100.000 nm, negative control | Substance
16900 | 18400 | 17200 | 19200 | 29300 | 70800 | 96900 | 96500 | 98000 | 94000 |  | Atezolizumab (antibody)
18200 |  | 20300 | 23200 | 53100 | 89700 | 103000 | 97900 | 102000 | 94100 |  | Durvalumab (antibody)
 |  |  |  |  |  |  |  |  |  | 15700 | IgG1 negative control (antibody)
